According to PMC7060239, “Two distinct modes of DNMT1 recruitment ensure stable maintenance DNA methylation” (Nature Communications, 2020):
Values belong to the binder of their own block, whether it stands above or below them.

Biological target: T1, PHD finger of human UHRF1 (residues 299–366) (human, UniProt Q96T88 299-366)
T1 construct: UHRF1, human, PHD finger, residues 299–366; also called hPHD; UHRF1 PHD finger; source: recombinant, purified (glutathione Sepharose 4B, HiTrap Q HP, Superdex75); not shown: GST, N-terminal, cleaved; SUMO-1, N-terminal, cleaved
T1 sequence (looked up): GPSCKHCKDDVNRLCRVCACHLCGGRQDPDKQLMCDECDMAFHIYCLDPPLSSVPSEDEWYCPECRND
Test: ITC; hPHD and PAF15_(2-11) or H3 peptides; VP-ITC; 10 mM HEPES-NaOH (pH 7.5), 150 mM NaCl, 0.25 mM TCEP; one-site model
Conditions: both partners purified

Kd: 1500 ± 100 nM
B1: N-terminal histone H3 peptide (peptide)
chain: ARTKQTARKST
modifications: Unmodified free N-terminus assumed (initiator Met removed). Peptide limits are not printed in the supplied text (ITC in Supplementary Fig. 2d). Mature H3 residues 1-11 taken by convention from UHRF1 …

Kd: 2200 ± 300 nM
B2: human PAF15 (residues 2–11) peptide (peptide, UniProt Q15004 2-11, looked up)
peptide: VRTKADSVPG
notes: PCNA-associated factor 15 (PAF15), human, residues 2–11; begins with 2VRTK5; also called hPAF15_(2-11); PAF15_(2-11); source: synthetic peptide (Toray Research Center)

binding result: binds
B3: hPAF15_(2-11)-K5A peptide (peptide, UniProt Q15004 2-11, looked up)
peptide: VRTAADSVPG
notes: PCNA-associated factor 15 (PAF15), human, residues 2–11; also called PAF15 K5A
